Biological target: amyloid β precursor-like protein 1 (Aplp1), on transfected SH-SY5Y cells (UniProt Q03157)
Assay: cell surface-binding assay

UniProt Q03157, sequence (Q03157 39-654): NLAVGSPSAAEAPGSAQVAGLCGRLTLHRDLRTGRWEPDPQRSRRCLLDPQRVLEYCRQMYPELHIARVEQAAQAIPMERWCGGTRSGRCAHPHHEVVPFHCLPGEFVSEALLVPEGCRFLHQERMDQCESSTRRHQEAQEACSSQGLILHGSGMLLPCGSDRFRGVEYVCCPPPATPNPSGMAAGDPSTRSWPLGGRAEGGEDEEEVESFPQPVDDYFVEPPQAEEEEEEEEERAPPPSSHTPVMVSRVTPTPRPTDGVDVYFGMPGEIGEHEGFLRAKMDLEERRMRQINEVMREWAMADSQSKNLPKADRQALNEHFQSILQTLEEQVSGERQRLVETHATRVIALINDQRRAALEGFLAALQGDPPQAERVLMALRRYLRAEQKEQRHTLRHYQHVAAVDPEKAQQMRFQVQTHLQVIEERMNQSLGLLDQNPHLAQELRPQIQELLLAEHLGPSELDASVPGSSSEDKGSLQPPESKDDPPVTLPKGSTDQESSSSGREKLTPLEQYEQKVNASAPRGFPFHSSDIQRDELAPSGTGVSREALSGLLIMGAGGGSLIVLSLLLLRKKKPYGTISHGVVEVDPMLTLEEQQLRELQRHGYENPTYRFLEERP

With β-amyloid-biotin PFF (peptide) the Kd was greater than 3 µM.

Reference: paper doi:10.1101/2021.05.01.442157
